Data: article PMC11440629 (Advanced Functional Materials, 2023)

Target: the molecule itself
Experiment: release from hydrogel

B1: NT2RepCT (other)
chain: MSHTTPWTNPGLAENFMNSFMQGLSSMPGFTASQLDDMSTIAQSMVQSIQSLAAQGRTSPNKLQALNMAFASSMAEIAASEEGGGSLSTKTSSIASAMSNAFLQTTGVVNQPFINEITQLVSMFAQAGMNDVSAGNSGRGQGGYGQGSGGNAAAAAAAAAAAAAAAGQGGQGGYGRQSQGAGSAAAAAAAAAAAAAAGSGQGGYGGQGQGGYGQSGNSVTSGGYGYGTSAAAGAGVAAGSYAGAVNRLSSAEAASRVSSNIAAIASGGASALPSVISNIYSGVVASGVSSNEALIQALLELLSALVHVLSSASIGNVSSVGVDSTLNVVQDSVGQYVG
B1: binds.
